# Columns and labels:
# HLA-B*54:01 = experiment: IEDB peptide-MHC binding, purified MHC/competitive/radioactivity; filed as Kd, often an IC50 or EC50 that approximates it; ≥ and ≤ were set here for values at or beyond the usual limits of such assays
# HLA-B*51:01 = experiment: as above
# HLA-B*35:01 = experiment: as above
# HLA-B*53:01 = experiment: as above
# HLA-B*07:02 = experiment: as above
# HLA-A*24:02 = experiment: IEDB peptide-MHC binding, purified MHC/competitive/fluorescence; ≥ and ≤ were set here for values at or beyond the usual limits of such assays
# HLA-A*30:01 = experiment: IEDB peptide-MHC binding, purified MHC/competitive/radioactivity; filed as Kd, often an IC50 or EC50 that approximates it; ≥ and ≤ were set here for values at or beyond the usual limits of such assays
# HLA-A*02:01 [1] = experiment: IEDB peptide-MHC binding, purified MHC/competitive/fluorescence; filed as Kd, often an IC50 or EC50 that approximates it; ≥ and ≤ were set here for values at or beyond the usual limits of such assays; conditions: source organism: Escherichia coli 536
# HLA-B*57:01 = experiment: IEDB peptide-MHC binding, purified MHC/direct/fluorescence; filed as Kd, often an IC50 or EC50 that approximates it; ≥ and ≤ were set here for values at or beyond the usual limits of such assays; conditions: source organism: Yellow fever virus
# HLA-A*02:01 [2] = experiment: IEDB peptide-MHC binding, purified MHC/competitive/fluorescence; ≥ and ≤ were set here for values at or beyond the usual limits of such assays
# HLA-A*03:01 [3] = experiment: IEDB peptide-MHC binding, purified MHC/competitive/radioactivity; filed as Kd, often an IC50 or EC50 that approximates it; ≥ and ≤ were set here for values at or beyond the usual limits of such assays; conditions: source organism: Dengue virus 1 Brazil/97-11/1997
# HLA-A*69:01 = experiment: IEDB peptide-MHC binding, purified MHC/direct/fluorescence; filed as Kd, often an IC50 or EC50 that approximates it; ≥ and ≤ were set here for values at or beyond the usual limits of such assays; conditions: source organism: Homo sapiens
# HLA-A*01:01 = experiment: as above; conditions: source organism: Homo sapiens
# HLA-B*27:05 = experiment: as above; conditions: source organism: Homo sapiens
# HLA-A*31:01 = experiment: as above; conditions: source organism: Homo sapiens
# HLA-A*03:01 [4] = experiment: as above; conditions: source organism: Homo sapiens
# HLA-A*11:01 = experiment: as above; conditions: source organism: Homo sapiens
# [5] = source organism: SARS coronavirus Tor2
# [6] = source organism: Zaire ebolavirus
# [7] = source organism: Dengue virus 2 Jamaica/1409/1983
# [8] = source organism: Sudan ebolavirus
# [9] = source organism: Dengue virus 1 Brazil/97-11/1997
# [10] = source organism: Triticum aestivum
# [11] = source organism: Mammarenavirus lassaense
# [12] = source organism: Vaccinia virus WR
# [13] = source organism: Mammarenavirus guanaritoense
# [14] = source organism: Vaccinia virus
# [15] = source organism: Mammarenavirus machupoense
# [16] = source organism: Mammarenavirus brazilense
sequence,measurement,setting,value
SPSGVYQCAM,Kd,HLA-B*54:01; [5],2810 nM
same,Kd,HLA-B*51:01; [5],1070 nM
same,Kd,HLA-B*35:01; [5],26.3 nM
same,Kd,HLA-B*53:01; [5],748 nM
same,Kd,HLA-B*07:02; [5],6.09 nM
PKAENTNTS,IC50,HLA-A*24:02; [6],61000 nM
AVSRGSAKLR,Kd,HLA-A*30:01; [7],1210 nM
SFFVWVIIL,IC50,HLA-A*24:02; [8],≥ 72500 nM
LSRNKKPRI,Kd,HLA-A*30:01; [9],7690 nM
VPLVQQQQFL,Kd,HLA-B*54:01; [10],≥ 69900 nM
same,Kd,HLA-B*51:01; [10],5910 nM
same,Kd,HLA-B*35:01; [10],16100 nM
same,Kd,HLA-B*53:01; [10],4820 nM
same,Kd,HLA-B*07:02; [10],8750 nM
QPFPSQQPY,Kd,HLA-B*54:01; [10],≥ 78100 nM
same,Kd,HLA-B*51:01; [10],≥ 43500 nM
same,Kd,HLA-B*35:01; [10],66.8 nM
same,Kd,HLA-B*53:01; [10],7550 nM
same,Kd,HLA-B*07:02; [10],≥ 77500 nM
CPNCYDSVM,Kd,HLA-B*54:01; [11],4500 nM
same,Kd,HLA-B*51:01; [11],5710 nM
same,Kd,HLA-B*35:01; [11],7.87 nM
same,Kd,HLA-B*53:01; [11],79.5 nM
same,Kd,HLA-B*07:02; [11],205 nM
GQLASMVKL,Kd,HLA-A*02:01 [1],78.2 nM
RAKSPTRQS,Kd,HLA-A*30:01; [12],260 nM
ISYIMLIFF,Kd,HLA-B*57:01,2960 nM
TPNNFSSIV,Kd,HLA-B*54:01; [13],408 nM
same,Kd,HLA-B*51:01; [13],1250 nM
same,Kd,HLA-B*35:01; [13],1810 nM
same,Kd,HLA-B*53:01; [13],7580 nM
same,Kd,HLA-B*07:02; [13],1370 nM
RWGFRSGVP,IC50,HLA-A*24:02; [8],16700 nM
same,IC50,HLA-A*02:01 [2]; [8],16400 nM
RCLKPVILK,Kd,HLA-A*30:01; [9],220 nM
same,Kd,HLA-A*03:01 [3],156 nM
IFGNLSPET,IC50,HLA-A*24:02; [14],14000 nM
same,IC50,HLA-A*02:01 [2]; [14],47300 nM
YHKILTAGL,IC50,HLA-A*24:02; [6],7410 nM
MPNESRVKQW,Kd,HLA-B*54:01; [12],5360 nM
same,Kd,HLA-B*51:01; [12],≥ 69600 nM
same,Kd,HLA-B*35:01; [12],2290 nM
same,Kd,HLA-B*53:01; [12],30.4 nM
same,Kd,HLA-B*07:02; [12],2390 nM
KSRRLNLFS,Kd,HLA-A*30:01; [12],3.28 nM
ICQLIIQAF,IC50,HLA-A*24:02; [6],446 nM
KMRRERAAY,Kd,HLA-A*30:01; [12],3.04 nM
KSDPIMLLK,Kd,HLA-A*69:01,1500 nM
same,Kd,HLA-A*01:01,345 nM
same,Kd,HLA-B*27:05,7470 nM
same,Kd,HLA-A*31:01,8130 nM
same,Kd,HLA-A*03:01 [4],381 nM
same,Kd,HLA-A*11:01,40.8 nM
ITVIDLDPIP,Kd,HLA-A*30:01; [7],295 nM
RPNHTIKGSF,Kd,HLA-B*54:01; [5],≥ 69900 nM
same,Kd,HLA-B*51:01; [5],≥ 69600 nM
same,Kd,HLA-B*35:01; [5],≥ 69900 nM
same,Kd,HLA-B*53:01; [5],≥ 69900 nM
same,Kd,HLA-B*07:02; [5],57.7 nM
DARIYSDPLA,Kd,HLA-A*30:01; [7],744 nM
QPQEQVPLV,Kd,HLA-B*54:01; [10],12100 nM
same,Kd,HLA-B*51:01; [10],4830 nM
same,Kd,HLA-B*35:01; [10],≥ 23700 nM
same,Kd,HLA-B*53:01; [10],≥ 36600 nM
same,Kd,HLA-B*07:02; [10],≥ 77500 nM
EWAFWETKK,IC50,HLA-A*24:02; [6],5980 nM
MLNNSLYYM,Kd,HLA-B*54:01; [15],≥ 36700 nM
same,Kd,HLA-B*51:01; [15],≥ 36700 nM
same,Kd,HLA-B*35:01; [15],8710 nM
same,Kd,HLA-B*53:01; [15],9770 nM
same,Kd,HLA-B*07:02; [15],≥ 77400 nM
LGADLDAVI,IC50,HLA-A*24:02; [12],7660 nM
same,IC50,HLA-A*02:01 [2]; [12],20500 nM
DPEYFDNERI,Kd,HLA-B*54:01; [12],2260 nM
same,Kd,HLA-B*51:01; [12],3860 nM
same,Kd,HLA-B*35:01; [12],≥ 34800 nM
same,Kd,HLA-B*53:01; [12],1740 nM
same,Kd,HLA-B*07:02; [12],≥ 69600 nM
RVRNRVSTG,Kd,HLA-A*30:01; source organism: Dengue virus 3 Martinique/1243/1999,115 nM
KKKTWLVHK,Kd,HLA-A*30:01; source organism: Dengue virus 4 Philippines/H241/1956,470 nM
SINVEYRFL,IC50,HLA-A*24:02; [12],27700 nM
same,IC50,HLA-A*02:01 [2]; [12],27200 nM
LPTSIVVPI,Kd,HLA-B*54:01; [16],17.7 nM
same,Kd,HLA-B*51:01; [16],75.8 nM
same,Kd,HLA-B*35:01; [16],6.09 nM
same,Kd,HLA-B*53:01; [16],7.51 nM
same,Kd,HLA-B*07:02; [16],124 nM
QDGLICGLR,IC50,HLA-A*24:02; [6],428 nM
same,IC50,HLA-A*02:01 [2]; [6],13300 nM
LPSLEYGANY,Kd,HLA-B*54:01; [12],960 nM
same,Kd,HLA-B*51:01; [12],≥ 69600 nM
same,Kd,HLA-B*35:01; [12],15.1 nM
same,Kd,HLA-B*53:01; [12],13.3 nM
same,Kd,HLA-B*07:02; [12],≥ 45100 nM
STSSSYLYA,Kd,HLA-A*30:01; source organism: Vaccinia virus Copenhagen,13.3 nM
